Biological target: T1, Ets1 280-441 (UniProt P14921 280-441)
T1 sequence: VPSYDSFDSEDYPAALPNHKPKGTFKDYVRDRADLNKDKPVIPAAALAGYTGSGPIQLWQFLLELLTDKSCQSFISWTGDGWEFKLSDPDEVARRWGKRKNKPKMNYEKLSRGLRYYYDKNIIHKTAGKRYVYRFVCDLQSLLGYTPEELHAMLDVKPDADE
Experiment: X-ray crystallography

B1: stromelysin-1 EBS palindrome, crystal duplex (dsDNA)
DNA 1: CAGGAAGCACTTCCTG
DNA 2: GCAGGAAGTGCTTCCT
Q: Does B1 bind?
A: Result: binds
